Assay results from the supplement of paper PMC12042874.
± gives the uncertainty stated by the source.

Test: amyloid nucleation score (Sup35N fusion, yeast selection) (log enrichment); library NNK1; higher = more nucleation; inactive = no reads after selection
In short: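 Libraries of peptides of 20 random codons fused to Sup35N were expressed in psi-negative yeast and induced 24 hours with 100 μM copper sulfate. Selection was 7 days at 30°C on medium lacking adenine and uracil, and plasmid inserts were Illumina-sequenced before and after selection. Nucleation score is the DiMSum log enrichment of output over input reads, centred on the mode score of non-aggregating sequences, and sequences with under 100 input reads were left out.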

Substance | amyloid nucleation score
LNSNPDCKTLFIHAWW | 0.282 ± 1.2
RLMVRGLDGKTFHSFFDSIL | inactive
PWRCLM | inactive
TPSMKWFPKLLVLVSSTRHY | -0.51 ± 0.44
YPYTSLRQGRDTRNREGLQC | 0.301 ± 0.61
DCNFCL | -0.545 ± 1.1
WETWYSVCYAIEIRSYKIRV | -1.3 ± 1
LESFWGSPA | 0.445 ± 1.2
SSKSAWYVRWSVSVQNKGRG | -0.363 ± 0.44
WTIWVKDSLVPVCTSF | -1.03 ± 1.2
RMDWWLEERASSSCDEELLT | inactive
LVSQVFNVQRYGGRTVPQSF | 0.364 ± 1.2
CFRTFKFLI | 2.49 ± 0.27
LNTFWKIRTNMSMGTWS | 0.79 ± 0.65
TSNCGTSLIDHSVRLLMLQR | -0.163 ± 0.49
TDYIHLSIMIDFLGFTFQDR | 1.46 ± 0.43
VGSRLQRHGDGTGSLGLSWC | inactive
IVEMHYMAGWTGMEMMSWAH | 0.413 ± 1
YFSWLFPFIDLSRVSASMPT | 2.69 ± 0.2
LHLERALLTNRLFRS | 0.077 ± 0.49
MSMDWICVTTYKAWSARLER | 0.689 ± 0.26
LVLIRKLVWGSGSDTLWVRR | inactive
YILNGVPVKAFFLGYGADYS | -0.979 ± 1.3
PVLKPGFL | -0.266 ± 0.5
CNFHVCLRLRDIWSRLYLVV | 7.157 ± 0.07

Substance | amyloid nucleation score
VGLERSWGEAKAVNMQRHGS | 0.346 ± 0.81
CDVRLPF | 0.249 ± 0.61
CYELSGWGNSWVGNRSLGFV | 0.626 ± 0.46
IRTVKADNMRIWQAQRSSEI | 0.157 ± 0.87
LTLMGRSMNKYVAGSTTRAL | -0.371 ± 0.29
SLDRYIREHK | 0.635 ± 0.84
IRAFSWTIMLLFYCWWHVEN | 0.402 ± 0.86
DLHRRSVCCFENVFVITAYY | 2.06 ± 0.27
GFGSMLVEVTLYSAVAVAAR | 0.852 ± 0.52
SCNSIGTCTLFKLHSLLS | 0.701 ± 0.51
LVMGMHYSLVV | 0.125 ± 0.46
GVMRKNMNKAWFTRDIDSF | 0.752 ± 0.41
IGDRNVNLGVQVVVMKE | 7.031 ± 0.048
RSLKMINNYISKLHVLMGFH | -0.281 ± 0.76
TYWYSHINFLYYIASFVWSP | inactive
MLLWVWMEFY | 0.991 ± 0.33
RIDLGQTVFMVKYIAA | 0.122 ± 0.17
SLSWEAYRSLLS | 1.1 ± 0.23
SLVMKVPLFECVCIGMCGRA | 0.448 ± 0.52
TYEYTRWGWYYLS | 1.11 ± 0.12
RVNFSDTYTSSGGFALGMST | 0.43 ± 0.3
SGMYRTNTAMFSFYDTTIVI | -0.091 ± 0.84
FCMTTSVSSNTLV | -0.013 ± 0.94
EIRKNTASMIMKLCIYIVGA | -0.007 ± 0.45
MISFCSSWKLEQYEWWRRNL | 1.35 ± 0.32

Substance | amyloid nucleation score
ASLRLSTSLCEYGYRGRYTK | -0.05 ± 0.25
SHIGIFEGFYVYLPYDCITM | inactive
VAITCLKIANGDRGVLQTLC | 0.264 ± 0.86
GYLQR | 0.158 ± 0.59
LSYRCVVYSVMIWSDIRALV | 0.655 ± 0.3
EKLNFSNLEGFRGFRLKGSR | -0.271 ± 1.4
RHLLSSYRGFLLEQVSASNS | 1.51 ± 0.38
RMQRNRGYPKVLLDMN | -0.472 ± 0.46
ILLRSNIFMYFNMTEMPNSC | 6.798 ± 0.055
GCSIEFFDYGGY | -0.183 ± 0.74
IMFYMTVDGCLSVEYIFR | -0.704 ± 0.42
RSRLPGCDFVPLYEVH | -0.472 ± 0.44
RRRYSC | -0.307 ± 0.42
SCKCLTSTGGGSGDRKGWNG | 0.916 ± 0.55
LEGSNSFNLRNLQFALRGTL | 0.069 ± 0.45
AMWYMKCNTYKVWLGDMYLV | 0.193 ± 0.18
FDSLNAYSLSPSMVMKDSRG | 0.17 ± 0.18
FGNRDFSQSDYNSCVFATGS | 2.2 ± 0.44
LYSLATIDNYMPWCQGSSGS | inactive
LRVKIHTIVIQWIANNGARL | 0.39 ± 0.74
SAVINFLRSQKLLNCGMGVT | -0.529 ± 1.7
VNDLSCIGVGGDAKDNREGN | 1.34 ± 0.48
WMTTEIRRAIIEIRSVLWTS | 0.33 ± 0.55
LQYSKGYDRVRDPILHTVN | 0.389 ± 0.37
WRVHSNKRKLGSCLLTGTIF | 0.656 ± 0.5

Substance | amyloid nucleation score
VRRIAWSNGWCRGIGGRSVL | -0.179 ± 0.39
VDRFEVLTYLKE | -0.175 ± 1
FHNRINKPTK | inactive
VPMLDLGKVYNRSACP | inactive
SRIFRKLHYSTWIQMRGLCP | -0.431 ± 0.28
EYLSMNRLRERSYYLGNRTF | 0.077 ± 0.69
VMAPERST | -0.905 ± 1.6
CLKFLDLNIKIDPYQFSF | inactive
LDTDFSPCRTAVLVAIMHRG | 0.415 ± 0.74
GVMGYFVC | -0.405 ± 0.27
IWMWEWQHCSEARKNMMWVS | 2.1 ± 0.13
RSASAREHNTALRSRPARVG | -0.353 ± 1.7
TCHLLPSICKSLWNHDNHGL | inactive
RVMVSGNAPSFVLNGGVSVR | 0.874 ± 0.62
LPLICRSSGLLV | -0.405 ± 1.6
YRMVCVLITVPANQIYCLLH | 0.541 ± 0.69
VVDVHVSFRCLFKMGV | 1.51 ± 0.4
WTSSVFSIAHPVRYVRFYAV | 0.307 ± 0.54
MVLRHRKCLSAFPWAFHAPY | 1.49 ± 0.85
APQFTKGFSEFGDLGAMRRA | 0.196 ± 0.67
TIGPSGNLEGCVLSVGASNI | -1.35 ± 1.2
KTRLSWYWKITCLLHSMKFS | -0.12 ± 0.4
CSWDYMVVR | -0.137 ± 0.98
VNSKFMGKY | 0.192 ± 0.39
YFLLPYADRIHHLSVNCFWM | -0.008 ± 0.93

Substance | amyloid nucleation score
MSSLQG | -0.246 ± 1.1
LLSVF | 0.484 ± 0.74
GYGIGDGRVHTQNKVGCYGG | 1.33 ± 0.66
RSQPLGADVVKLPASRLGRL | -1.11 ± 0.94
GNICSTLAINVGLIFSKECV | inactive
GDGVGFVLITHWDVVDDMGC | 0.724 ± 0.93
RMMLVV | -0.181 ± 0.37
TDADYTPHVQSVPYYAHLII | 3.88 ± 0.14
SPFASVEEFELL | 0.124 ± 0.33
LWAFIIGIVSTTLLGYKPFH | -0.344 ± 1.1
RMMFCVVAESGFQVWEVRSG | -0.502 ± 0.42
RFIVM | 0.304 ± 0.78
WASGRGSSVRIKQLPHDRQQ | -0.779 ± 0.43
CDVAVVSFFGMADDPVYRVH | 1.54 ± 0.48
DKYTARDVSKRT | 1.56 ± 0.59
WVHVCGGHCNWLICSMASNG | 7.889 ± 0.061
IPLVVVNPSARFRLRTKIIR | 0.908 ± 0.88
SVCGSLSC | 1.16 ± 0.76
YARGMCWVRVWLNVQVSAWS | 0.398 ± 0.53
RMDSRKGTNNKSFSGGLEYR | -0.366 ± 0.32
SKCLMNS | -1.26 ± 1.7
NDRKYLCMMRILMSNRRVLQ | 0.553 ± 0.3
SCYDVIVRWDFFLQQFCKMQ | 1.73 ± 0.12
WFTAFARK | 3.41 ± 0.11
NDCKSQRSRNSMGCQ | inactive

Substance | amyloid nucleation score
EDNWHLRVQ | 0.088 ± 0.29
FTRDVYRWKYPNYLVKYSTP | -0.199 ± 0.85
RGVYNDSMERMPDNCSFYNK | -0.641 ± 1.5
TATGGASETERTAVTMY | -0.609 ± 1.9
TRGTPFEYLATGG | 0.607 ± 0.71
RSIRSIESNYYLRNVTFISR | 1.09 ± 0.31
FYCVDN | 0.547 ± 0.65
VWFCIYAFVHSYGLYVVSMV | -0.03 ± 0.31
GLSVFSCQFFFNSTAFFSVN | 6.061 ± 0.06
RGSKVFSSDALVSRLARRVG | -0.462 ± 0.5
VVVSLK | -0.916 ± 0.86
HYYANSGVCSTSVNLFRLGS | 6.529 ± 0.049
NSHLVFMGMLFLRISDDFVR | -0.083 ± 1.4
SKFSISRTHNSHLSYSGLGG | 0.056 ± 0.5
TSPTYAYCYCLSTNRRQKCL | -0.957 ± 1.1
YYNFCMDRRLLDNGTNGSKS | -0.016 ± 1.7
RDNKLSVAVVMQSYSVGESG | -0.034 ± 0.89
RIIQGFLAM | -0.153 ± 1.4
DSSRNGKF | -0.563 ± 0.64
DSEDSNLSCLLYTQC | 0.153 ± 0.16
SMYVYDRGTGILLSCGVYFF | 1.82 ± 0.11
GKKAYALGMSYLESCL | 1.37 ± 0.73
YCYEQVDSV | 0.154 ± 0.42
PYRYKSGWATTQSLRREQLD | -0.743 ± 1.3
GFGWLCYCGPYNLGRFSLSV | -0.124 ± 0.66

Substance | amyloid nucleation score
RKIEWTVSLRGGRKCYFSGE | -0.012 ± 0.3
LRNIGCKY | 1.01 ± 0.64
MGDSISVFMKSRFCVCTWGG | inactive
AAWDLVVGQ | -0.473 ± 0.32
DLRNMKVNTQDVSFLSPRGG | 0.208 ± 0.29
WCYVYRSRRVSMTSWVLRTQ | 0.19 ± 0.26
CSDRRS | -0.054 ± 0.53
RLTECSYCCNSDYITHMELL | -0.317 ± 0.29
RSMACVRLFDFQSQLYFRVF | -0.186 ± 0.77
VRCLLRYLLLESPQFINV | 1.7 ± 0.36
ARYRYVTVYQV | -0.725 ± 0.35
MVDSYWGWCAMK | 1.22 ± 0.61
YPTYCLGCMS | 0.672 ± 0.51
MNRHGYHNIWWYTTSHGLYT | -1.05 ± 2.7
PLTFSCSLGKGFTWYFCLNV | -0.196 ± 0.45
FVGLVDN | 0.051 ± 0.49
AMKLVPLNLYFKDNKNQSSC | -0.033 ± 0.31
RSVFEKNWVGCITEMTIWFA | -0.47 ± 0.73
DMFCQAI | 0.773 ± 0.39
FSWTYVYYNN | 0.433 ± 0.89
HLCVTTGSSLL | -0.58 ± 0.98
